Laboratory results: patent US20090274682

Experiments:
[1] = molecular target: PP2A core enzyme variant involving truncation of the carboxy-terminus of the catalytic subunit (two C-terminal amino acids removed by chymotrypsin)
[2] = molecular target: PP2A core enzyme involving full-length Cα and AΔN, methylated by LCMT1
[3] = molecular target: PP2A core enzyme (AC heterodimer) involving the full-length A subunit
PP2A core enzyme (AC heterodimer) involving the full-length A subunit, sequence (chain, as listed by the source, chain 1 of 2): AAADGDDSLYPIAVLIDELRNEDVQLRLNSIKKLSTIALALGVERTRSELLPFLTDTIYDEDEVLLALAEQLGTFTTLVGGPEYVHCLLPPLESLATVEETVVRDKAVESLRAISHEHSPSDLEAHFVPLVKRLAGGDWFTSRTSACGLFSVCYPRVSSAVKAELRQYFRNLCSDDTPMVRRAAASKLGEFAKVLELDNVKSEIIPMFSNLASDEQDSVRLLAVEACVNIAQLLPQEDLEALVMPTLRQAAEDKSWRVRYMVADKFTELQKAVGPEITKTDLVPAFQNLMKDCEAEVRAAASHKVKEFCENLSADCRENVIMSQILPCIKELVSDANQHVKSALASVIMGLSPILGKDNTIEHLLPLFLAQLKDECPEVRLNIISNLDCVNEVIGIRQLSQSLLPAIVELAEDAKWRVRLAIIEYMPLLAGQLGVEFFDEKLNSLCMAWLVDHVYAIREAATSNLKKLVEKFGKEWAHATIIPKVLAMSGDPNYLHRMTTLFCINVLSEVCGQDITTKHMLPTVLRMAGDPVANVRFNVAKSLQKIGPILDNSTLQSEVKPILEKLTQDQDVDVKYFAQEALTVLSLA
PP2A core enzyme (AC heterodimer) involving the full-length A subunit, sequence (chain, as listed by the source, chain 2 of 2): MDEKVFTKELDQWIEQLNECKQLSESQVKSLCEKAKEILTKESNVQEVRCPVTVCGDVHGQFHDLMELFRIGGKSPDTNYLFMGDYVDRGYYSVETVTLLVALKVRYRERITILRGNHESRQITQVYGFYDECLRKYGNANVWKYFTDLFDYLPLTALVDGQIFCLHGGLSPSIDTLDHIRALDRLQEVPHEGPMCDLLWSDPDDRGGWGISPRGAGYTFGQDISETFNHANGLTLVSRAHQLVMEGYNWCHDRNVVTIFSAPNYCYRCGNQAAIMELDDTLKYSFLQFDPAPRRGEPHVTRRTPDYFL

PP2A core enzyme involving full-length Cα and AΔN, methylated by LCMT1, sequence (chain, as listed by the source mutant, chain 1 of 2): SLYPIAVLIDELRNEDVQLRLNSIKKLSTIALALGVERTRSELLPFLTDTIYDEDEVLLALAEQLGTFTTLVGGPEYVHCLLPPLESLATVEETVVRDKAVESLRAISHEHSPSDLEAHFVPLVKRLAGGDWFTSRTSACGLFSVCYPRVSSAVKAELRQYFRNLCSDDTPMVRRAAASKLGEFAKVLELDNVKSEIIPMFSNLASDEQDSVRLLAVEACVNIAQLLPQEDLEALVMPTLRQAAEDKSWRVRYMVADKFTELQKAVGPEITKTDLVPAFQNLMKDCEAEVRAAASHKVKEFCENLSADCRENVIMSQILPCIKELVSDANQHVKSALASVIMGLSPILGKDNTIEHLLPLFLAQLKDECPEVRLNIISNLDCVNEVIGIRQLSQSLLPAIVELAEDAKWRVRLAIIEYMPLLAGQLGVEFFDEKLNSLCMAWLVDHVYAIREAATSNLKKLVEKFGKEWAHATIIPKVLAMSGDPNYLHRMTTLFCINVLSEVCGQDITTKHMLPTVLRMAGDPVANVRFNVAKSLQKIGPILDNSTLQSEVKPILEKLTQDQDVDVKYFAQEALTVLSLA
PP2A core enzyme involving full-length Cα and AΔN, methylated by LCMT1, sequence (chain, as listed by the source mutant, chain 2 of 2): as the sequence (chain, as listed by the source, chain 2 of 2) above
PP2A core enzyme variant involving truncation of the carboxy-terminus of the catalytic subunit (two C-terminal amino acids removed by chymotrypsin), sequence (chain, as listed by the source mutant, chain 1 of 2): as the sequence (chain, as listed by the source mutant, chain 1 of 2) above
PP2A core enzyme variant involving truncation of the carboxy-terminus of the catalytic subunit (two C-terminal amino acids removed by chymotrypsin), sequence (chain, as listed by the source mutant, chain 2 of 2): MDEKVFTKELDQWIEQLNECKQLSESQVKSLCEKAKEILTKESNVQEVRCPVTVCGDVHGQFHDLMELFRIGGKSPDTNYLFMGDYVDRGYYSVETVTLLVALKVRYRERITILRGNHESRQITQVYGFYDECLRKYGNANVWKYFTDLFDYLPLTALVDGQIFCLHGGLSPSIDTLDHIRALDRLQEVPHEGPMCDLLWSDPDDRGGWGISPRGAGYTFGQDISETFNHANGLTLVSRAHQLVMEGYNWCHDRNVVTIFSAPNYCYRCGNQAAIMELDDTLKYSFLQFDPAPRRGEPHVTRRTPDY

B1: Full-length PME-1 (1-386) (protein)
chain: MSALEKSMHLGRLPSRPPLPGSGGSQSGAKMRMGPGRKRDFSPVPWSQYFESMEDVEVENETGKDTFRVYKSGSEGPVLLLLHGGGHSALSWAVFTAAIISRVQCRIVALDLRSHGETKVKNPEDLSAETMAKDVGNVVEAMYGDLPPPIMLIGHSMGGAIAVHTASSNLVPSLLGLCMIDVVEGTAMDALNSMQNFLRGRPKTFKSLENAIEWSVKSGQIRNLESARVSMVGQVKQCEGITSPEGSKSIVEGIIEEEEEDEEGSESISKRKKEDDMETKKDHPYTWRIELAKTEKYWDGWFRGLSNLFLSCPIPKLLLLAGVDRLDKDLTIGQMQGKFQMQVLPQCGHAVHEDAPDKVAEAVATFLIRHRFAEPIGGFQCVFPGC
[1]
  methylesterase activity of PME-1 after pre-incubation with the PP2A variant and PMSF: pre-incubation with the PP2A variant and PMSF led to marked reduction of PME-1-mediated methylesterase activity
[2]
  methylesterase activity of PME-1: The methylesterase activity of PME-1 on the PP2A core enzyme involving the AΔN variant was nearly identical to that on the PP2A core enzyme involving the full-length A subunit
[3]
  LCMT1-catalyzed methylation: the stable complex between PP2A and PME-1 blocks LCMT1-catalyzed methylation (data not shown)
  phosphatase activity after incubation at 37° C.: A prolonged incubation time was required for substantial loss of the phosphatase activity in vitro
  phosphatase activity towards phosphorylase a upon initial incubation: The PP2A core enzyme, upon initial incubation with various concentrations of PME-1, exhibited full phosphatase activity towards the substrate phosphorylase a

B2: PME-1 R369D (protein)
chain: MSALEKSMHLGRLPSRPPLPGSGGSQSGAKMRMGPGRKRDFSPVPWSQYFESMEDVEVENETGKDTFRVYKSGSEGPVLLLLHGGGHSALSWAVFTAAIISRVQCRIVALDLRSHGETKVKNPEDLSAETMAKDVGNVVEAMYGDLPPPIMLIGHSMGGAIAVHTASSNLVPSLLGLCMIDVVEGTAMDALNSMQNFLRGRPKTFKSLENAIEWSVKSGQIRNLESARVSMVGQVKQCEGITSPEGSKSIVEGIIEEEEEDEEGSESISKRKKEDDMETKKDHPYTWRIELAKTEKYWDGWFRGLSNLFLSCPIPKLLLLAGVDRLDKDLTIGQMQGKFQMQVLPQCGHAVHEDAPDKVAEAVATFLIDHRFAEPIGGFQCVFPGC
[3]
  methylesterase activity: R369D in PME-1 resulted in marked reduction of its methylesterase activity

B3: PME-1 M335D (protein)
chain: MSALEKSMHLGRLPSRPPLPGSGGSQSGAKMRMGPGRKRDFSPVPWSQYFESMEDVEVENETGKDTFRVYKSGSEGPVLLLLHGGGHSALSWAVFTAAIISRVQCRIVALDLRSHGETKVKNPEDLSAETMAKDVGNVVEAMYGDLPPPIMLIGHSMGGAIAVHTASSNLVPSLLGLCMIDVVEGTAMDALNSMQNFLRGRPKTFKSLENAIEWSVKSGQIRNLESARVSMVGQVKQCEGITSPEGSKSIVEGIIEEEEEDEEGSESISKRKKEDDMETKKDHPYTWRIELAKTEKYWDGWFRGLSNLFLSCPIPKLLLLAGVDRLDKDLTIGQDQGKFQMQVLPQCGHAVHEDAPDKVAEAVATFLIRHRFAEPIGGFQCVFPGC
[3]
  Mn2+ bound (ICP-MS) and phosphatase activity with or without manganese chloride: mutation of Met335 to aspartate in PME-1 led to decreased ability to remove the metal ions, and the PP2A-PME-1-M335D complex became readily activated by manganese
